Source: patent US20200024322A1 (Eli Lilly, published 2020)
Numbered stars: 1 amine (or outer) side, 2 acyl side, 3 side chain; on linkers, the order of the positions; unused ones are H or OH. Square brackets hold non-standard residues; d marks the D form. Side chains are listed from the residue outwards. Ends that are not written are not given here. * marks the point of attachment. C20 diacid = O=C(O)CCCCCCCCCCCCCCCCCCC(=O)*; γGlu = O=C(O)[C@H](CCC(=O)[*:2])N[*:1]; Desaminotyrosyl = O=C(CCc1ccc(O)cc1)*; αMeF = C[C@](N)(Cc1ccccc1)C(=O)O; αMeL = CC(C)C[C@](C)(N)C(=O)O; AEEA = NCCOCCOCC(=O)O; Aib = CC(C)(N)C(=O)O

T1: human GIP receptor (human, UniProt P48546 22-466)
T1 construct: whole, on cells; Used as crude membranes of stably transfected CHO cells; also called hGIPR
T1 sequence (looked up): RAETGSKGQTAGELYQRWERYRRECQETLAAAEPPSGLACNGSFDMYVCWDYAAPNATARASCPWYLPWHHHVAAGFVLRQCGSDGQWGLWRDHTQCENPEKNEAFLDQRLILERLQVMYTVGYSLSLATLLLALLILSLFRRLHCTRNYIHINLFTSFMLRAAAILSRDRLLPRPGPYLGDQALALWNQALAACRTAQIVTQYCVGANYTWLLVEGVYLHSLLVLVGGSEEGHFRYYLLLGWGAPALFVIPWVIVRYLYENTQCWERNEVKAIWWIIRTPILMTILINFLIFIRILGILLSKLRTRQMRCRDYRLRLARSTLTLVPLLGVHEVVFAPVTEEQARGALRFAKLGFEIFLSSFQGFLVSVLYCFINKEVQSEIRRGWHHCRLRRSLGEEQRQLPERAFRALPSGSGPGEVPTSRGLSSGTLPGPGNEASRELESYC


Columns and labels:
human glucagon receptor = target: T2, human glucagon receptor (human, UniProt P47871 26-477); assay: SPA, [125I]-Gcg displacement, hGcgR membranes
T2 construct: whole, on cells; Used as crude membranes of stably transfected HEK293 cells; also called hGcgR; hGLcgR
T2 sequence (P47871 26-477): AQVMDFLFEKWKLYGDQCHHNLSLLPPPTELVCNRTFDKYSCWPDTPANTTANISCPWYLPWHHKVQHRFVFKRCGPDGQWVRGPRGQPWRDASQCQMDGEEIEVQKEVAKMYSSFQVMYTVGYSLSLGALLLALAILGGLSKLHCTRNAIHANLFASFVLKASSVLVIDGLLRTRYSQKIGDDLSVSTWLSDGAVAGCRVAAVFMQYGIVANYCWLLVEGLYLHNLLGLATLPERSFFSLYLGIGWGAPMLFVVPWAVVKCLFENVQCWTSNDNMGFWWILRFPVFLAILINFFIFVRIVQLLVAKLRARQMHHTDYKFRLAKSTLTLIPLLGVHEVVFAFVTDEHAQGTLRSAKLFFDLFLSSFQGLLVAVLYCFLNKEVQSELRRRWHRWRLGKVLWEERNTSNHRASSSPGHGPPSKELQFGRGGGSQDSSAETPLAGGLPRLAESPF

human GLP-1 receptor = target: T3, human GLP-1 receptor (human, UniProt P43220 24-463); assay: SPA, [125I]-GLP-1 displacement, hGLP-1R membranes
T3 construct: whole, on cells; Used as crude membranes of stably transfected HEK293 cells; also called hGLP1R; hGLP-1R

human GIP receptor = target: T1, human GIP receptor; assay: SPA, [125I]-GIP displacement, hGIPR membranes

Row | Binder | Ki (human glucagon receptor) | Ki (human GLP-1 receptor) | Ki (human GIP receptor)
1 | Y[Aib]EGT[αMeF]TSDYSI[αMeL]LDEK([AEEA-AEEA-γGlu-C20 diacid])AQQAFIEYLIE[Aib]GPSSGAPPPS-NH2 (N-terminus assumed; SMILES CC[C@H](C)[C@H](NC(=O)[C@H](Cc1ccccc1)NC(=O)[C@H](C)NC(=O)[C@H](CCC(N)=O)NC(=O)[C@H](CCC(N)=O)NC(=O)[C@H](C)NC(=O)[C@H](CCCCNC(=O)COCCOCCNC(=O)COCCOCCNC(=O)CC[C@H](NC(=O)CCCCCCCCCCCCCCCCCCC(=O)O)C(=O)O)NC(=O)[C@H](CCC(=O)O)NC(=O)[C@H](CC(=O)O)NC(=O)[C@H](CC(C)C)NC(=O)[C@](C)(CC(C)C)NC(=O)[C@@H](NC(=O)[C@H](CO)NC(=O)[C@H](Cc1ccc(O)cc1)NC(=O)[C@H](CC(=O)O)NC(=O)[C@H](CO)NC(=O)[C@@H](NC(=O)[C@](C)(Cc1ccccc1)NC(=O)[C@@H](NC(=O)CNC(=O)[C@H](CCC(=O)O)NC(=O)C(C)(C)NC(=O)[C@@H](N)Cc1ccc(O)cc1)[C@@H](C)O)[C@@H](C)O)[C@@H](C)CC)C(=O)N[C@@H](CCC(=O)O)C(=O)N[C@@H](Cc1ccc(O)cc1)C(=O)N[C@@H](CC(C)C)C(=O)N[C@H](C(=O)N[C@@H](CCC(=O)O)C(=O)NC(C)(C)C(=O)NCC(=O)N1CCC[C@H]1C(=O)N[C@@H](CO)C(=O)N[C@@H](CO)C(=O)NCC(=O)N[C@@H](C)C(=O)N1CCC[C@H]1C(=O)N1CCC[C@H]1C(=O)N1CCC[C@H]1C(=O)N[C@@H](CO)C(N)=O)[C@@H](C)CC) [Example 122] | 43.3 nM | 3.36 nM | 0.19 nM
2 | YXEGTXTSDYSIXLDKKAQXEFIEYLIEGGPSSG (Aib2; αMeF6; αMeL13; K17((2-[2-(2-Amino-ethoxy)-ethoxy]-acetyl)2-(γ-Glu)-CO-(CH2)18-CO2H); Aib20; C-terminal NH2) [Example 123] | 80.1 nM | 1.31 nM | 0.0469 nM
3 | YXEGTXTSDYSIXLDEKAQXEFIEYLIEGGPSSG (Aib2; αMeF6; αMeL13; K17((2-[2-(2-Amino-ethoxy)-ethoxy]-acetyl)2-(γ-Glu)-CO-(CH2)18-CO2H); Aib20; C-terminal NH2) [Example 124] | 41.5 nM | 4.87 nM | 0.0424 nM
4 | [Desaminotyrosyl][Aib]EGT[αMeF]TSDYSI[Aib]LDEK([AEEA-AEEA-γGlu-C20 diacid])AQ[Aib]AFIEYLIEGGPSSGAPPPS-NH2 (SMILES CC[C@H](C)[C@H](NC(=O)[C@H](CC(C)C)NC(=O)[C@H](Cc1ccc(O)cc1)NC(=O)[C@H](CCC(=O)O)NC(=O)[C@@H](NC(=O)[C@H](Cc1ccccc1)NC(=O)[C@H](C)NC(=O)C(C)(C)NC(=O)[C@H](CCC(N)=O)NC(=O)[C@H](C)NC(=O)[C@H](CCCCNC(=O)COCCOCCNC(=O)COCCOCCNC(=O)CC[C@H](NC(=O)CCCCCCCCCCCCCCCCCCC(=O)O)C(=O)O)NC(=O)[C@H](CCC(=O)O)NC(=O)[C@H](CC(=O)O)NC(=O)[C@H](CC(C)C)NC(=O)C(C)(C)NC(=O)[C@@H](NC(=O)[C@H](CO)NC(=O)[C@H](Cc1ccc(O)cc1)NC(=O)[C@H](CC(=O)O)NC(=O)[C@H](CO)NC(=O)[C@@H](NC(=O)[C@](C)(Cc1ccccc1)NC(=O)[C@@H](NC(=O)CNC(=O)[C@H](CCC(=O)O)NC(=O)C(C)(C)NC(=O)CCc1ccc(O)cc1)[C@@H](C)O)[C@@H](C)O)[C@@H](C)CC)[C@@H](C)CC)C(=O)N[C@@H](CCC(=O)O)C(=O)NCC(=O)NCC(=O)N1CCC[C@H]1C(=O)N[C@@H](CO)C(=O)N[C@@H](CO)C(=O)NCC(=O)N[C@@H](C)C(=O)N1CCC[C@H]1C(=O)N1CCC[C@H]1C(=O)N1CCC[C@H]1C(=O)N[C@@H](CO)C(N)=O) [Example 133] | 216 nM | 11.4 nM | 0.157 nM
5 | YXEGTXTSDYSIXLDKKAQXXFIEYLIEGGPSSGAPPPS (Aib2; αMeF6; αMeL13; K17((2-[2-(2-Amino-ethoxy)-ethoxy]-acetyl)2-(γ-Glu)-CO-(CH2)18-CO2H); Aib20; Aad21; C-terminal NH2) [Example 137] | 98.1 nM | 1.24 nM | 0.0373 nM
6 | YXEGTXTSDYSIXLDKKAQXXFIEYLIEGGPSSGAPPPS (Aib2; αMeF6; αMeL13; K17((2-[2-(2-Amino-ethoxy)-ethoxy]-acetyl)2-(γ-Glu)-CO-(CH2)18-CO2H); Aib20; Aib21; C-terminal NH2) [Example 143] | 65.5 nM | 1.15 nM | 0.0304 nM
7 | YXEGTXTSDYSIXLDKKAQHXFIEYLIEGGPSSGAPPPS (Aib2; αMeF6; αMeL13; K17((2-[2-(2-Amino-ethoxy)-ethoxy]-acetyl)2-(γ-Glu)-CO-(CH2)18-CO2H); Aib21; C-terminal NH2) [Example 144] | 77 nM | 1.78 nM | 0.0341 nM
